Target: uncleaved ~95 kD pol gene product of recombinant AcNPV-HIVYKpol (HIV-1 pol polypeptide lacking the first 91 amino acids at the NH2-terminus of the HIV-pol protease) (HIV-1)
Experiment: ELISA on plates coated with pol, no primary antibody, read at 450 nm

With “goat anti-human Ig linked to horse radish peroxidase (Tago Diagnostics, cat 2393) (tool reagent)” the OD was under 0.1 OD.

— US5858646
